# Results: US11324803B2, “Methods and compositions for treatment of Gaucher Disease via modulation of C5a receptor” (Children's Hospital Medical Center, priority 2015, dated 2022)
# T1: C5aR1 (Homo sapiens, UniProt P21730)
# T1 sequence (P21730 1-350): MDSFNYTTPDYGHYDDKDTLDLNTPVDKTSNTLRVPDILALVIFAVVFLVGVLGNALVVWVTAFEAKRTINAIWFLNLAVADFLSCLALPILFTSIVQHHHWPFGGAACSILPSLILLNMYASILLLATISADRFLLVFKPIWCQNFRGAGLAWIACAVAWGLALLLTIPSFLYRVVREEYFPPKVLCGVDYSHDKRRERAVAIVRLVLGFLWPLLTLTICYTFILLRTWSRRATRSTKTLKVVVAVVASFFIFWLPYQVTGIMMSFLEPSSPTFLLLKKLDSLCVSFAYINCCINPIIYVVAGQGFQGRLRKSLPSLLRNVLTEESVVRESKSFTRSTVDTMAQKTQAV
# T2: mouse C5aR2 (C5L2) (Mus musculus, UniProt Q8BW93)
# T2 sequence (Q8BW93 1-344): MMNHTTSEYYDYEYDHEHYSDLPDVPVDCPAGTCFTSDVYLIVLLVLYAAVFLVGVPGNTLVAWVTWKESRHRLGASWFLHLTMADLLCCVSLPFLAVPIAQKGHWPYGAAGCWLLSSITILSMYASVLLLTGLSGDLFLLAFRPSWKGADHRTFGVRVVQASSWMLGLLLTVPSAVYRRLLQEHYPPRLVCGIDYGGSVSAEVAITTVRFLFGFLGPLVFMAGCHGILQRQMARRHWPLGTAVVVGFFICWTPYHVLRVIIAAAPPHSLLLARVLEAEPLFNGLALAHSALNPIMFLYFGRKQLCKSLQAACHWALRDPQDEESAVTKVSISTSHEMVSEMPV
# B1: Thr Leu Gln Lys Lys Ile Glu Glu Ile Ala Ala Lys Tyr Lys His Ser Val Val Lys Lys Cys Cys Tyr Asp Gly Ala Ala Val Asn Asn Asp Glu Thr Cys Glu Gln Arg Ala Ala Arg Ile Ser Leu Gly Pro Arg Cys Ile Lys Ala … (protein)
# chain: TLQKKIEEIAAKYKHSVVKKCCYDGAAVNNDETCEQRAARISLGPRCIKAFTECCVVASQLRANISFKRS
# modifications: mutant C5a-(1-66, Cys27A1a) -A8B-Del. 71-73 of human C5a
# notes: positions 27 and 68-71 of human C5a mutated and positions 72-74 deleted
# What was measured:
# [1] = tested on: C5a-induced effector functions; conditions: cited from earlier work
# C5aR1 = target: T1, C5aR1; assay: GC-IC-induced CCL18 and pro-inflammatory cytokine production in CBE-treated human MΦ-like cell line U937 with C5aRA; assay type: cell-based; parameters: endogenous in cells; host or cells: U937 (human macrophage-like cell line), CBE-treated
# mouse C5aR2 (C5L2) = target: T2, mouse C5aR2 (C5L2); conditions: cited from earlier work
# [2] = CBE-treated U937 cells, GC-IC stimulation, ELISA
molecule,measurement,setting,value
B1,C5a-induced effector functions,[1],inhibit
same,GC-IC-induced production of CCL18,C5aR1; [2],abolished
same,GC-IC-induced production of IL1β,C5aR1; [2],abolished
same,GC-IC-induced production of IL6,C5aR1; [2],abolished
same,GC-IC-induced production of IL23,C5aR1; [2],abolished
same,GC-IC-induced production of TNFα,C5aR1; [2],abolished
same,GC-IC-induced production of CCL18,"C5aR1; CBE-treated U937 cells, GC-IC stimulation, ELISA, listed as C5aR antagonist A8^Δ71-73",marked reduction
same,"MΦs, DC and T cells mediated immune inflammation",C5aR1; human model of Gaucher disease,significantly reduces
same,affinity to bind mouse C5aR2 (C5L2),mouse C5aR2 (C5L2),high affinity
